Laboratory results reported in patent publication US8101390B2, “Mutant-type acetyltransferase Mpr1” (National University Corporation Nara Institute of Science …, priority 2006, dated 2012).
Changes are numbered by the printed parent chain. Names may count otherwise.

Key:
[1] = target: T1, Saccharomyces cerevisiae N-acetyltransferase Mpr1 variant K63R (lysine 63 to arginine), SEQ ID NO:7 (Saccharomyces cerevisiae, UniProt E9P8D2, K63R); assay: DTNB enzymatic activity (kinetics) of purified K63R mutant-type Mpr1; assay type: biochemical; conditions: vs wild-type
T1 sequence (E9P8D2 1-229 K63R): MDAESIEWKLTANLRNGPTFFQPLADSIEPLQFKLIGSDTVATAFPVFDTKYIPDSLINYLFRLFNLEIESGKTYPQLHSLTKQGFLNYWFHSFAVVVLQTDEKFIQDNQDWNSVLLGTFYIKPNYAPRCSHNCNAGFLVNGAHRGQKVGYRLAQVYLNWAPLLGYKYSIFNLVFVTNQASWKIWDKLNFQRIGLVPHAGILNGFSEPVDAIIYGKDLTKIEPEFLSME
Method: (§1) JM109 was inoculated in 5 ml of M9CA (CA:0.2%) medium and was cultured at. 37° C. until OD600 of the culture reached 0.7. IPTG was added to the medium to the final concentration of 0.1 mM and cells were further cultured at 18° C. for 18 hours. After the culture, cells were ice-cooled and were collected by centrifugation (8000 rpm, 5 min). Cells were washed by the addition of Lysis buffer. After centrifugation (8000 rpm, 5 min), 5 ml of Lysis buffer was added and cells were suspended therein. The suspension was subjected to ultrasonic disintegrator and was centrifuged (15000 rpm, 10 min). The supernatant was applied onto Ni-NTA column (2 ml of QIAGEN resin suspension) equilibrated with Lysis buffer. The flow-through fraction was collected and the column was washed with 10 ml of wash buffer and then fractions were collected. Further, fractions eluted with 5 ml of elution buffer were used as the purified enzyme.
(§2) Enzymatic activities were measured for the purified wild-type Mpr1 and the purified K63R, F65L/L117V, F65L and L117V-mutant-type Mpr1s. The enzymatic activities were measured according to 5,5′-dithiobis (2-nitrobenzoic acid) (DTNB) method.

[2] = target: T2, Saccharomyces cerevisiae N-acetyltransferase Mpr1 variant L117V (leucine 117 to valine), SEQ ID NO:9 (Saccharomyces cerevisiae, UniProt E9P8D2, L117V); assay: DTNB enzymatic activity (kinetics) of purified L117V mutant-type Mpr1; assay type: biochemical; conditions: vs wild-type
T2 sequence (E9P8D2 1-229 L117V): T1 sequence (E9P8D2 1-229 K63R) with R63K, L117V
Method: as §1, §2

[3] = target: T3, Saccharomyces cerevisiae N-acetyltransferase Mpr1, wild-type, SEQ ID NO:1 (Saccharomyces cerevisiae, UniProt E9P8D2); assay: DTNB enzymatic activity (kinetics) of purified wild-type Mpr1; assay type: biochemical; conditions: 30° C., […]-0.15 mM acetyl-CoA
T3 sequence (E9P8D2 1-229): T1 sequence (E9P8D2 1-229 K63R) with R63K
Method: as §1, §2

[4] = target: T4, Saccharomyces cerevisiae N-acetyltransferase Mpr1 variant F65L (phenylalanine 65 to leucine), SEQ ID NO:8 (Saccharomyces cerevisiae, UniProt E9P8D2, F65L); assay: DTNB enzymatic activity (kinetics) of purified F65L mutant-type Mpr1; assay type: biochemical; conditions: vs wild-type
T4 sequence (E9P8D2 1-229 F65L): T1 sequence (E9P8D2 1-229 K63R) with R63K, F65L
Method: as §1, §2

[5] = substrate: CC(=O)SCCNC(=O)CCNC(=O)[C@H](O)C(C)(C)COP(=O)(O)OP(=O)(O)OC[C@H]1O[C@@H](n2cnc3c(N)ncnc32)[C@H](O)[C@@H]1OP(=O)(O)O; assay: DTNB enzymatic activity (kinetics) of purified L117V mutant-type Mpr1; assay type: biochemical, Saccharomyces cerevisiae; conditions: other: L117V, 30° C., DTNB method, […]-0.15 mM acetyl-CoA
[6] = substrate: O=C(O)[C@@H]1CCN1; assay: as above; assay type: biochemical, Saccharomyces cerevisiae; conditions: other: L117V, 30° C., DTNB method, 0.5 mM-5 mM AZC
[7] = substrate: CC(=O)SCCNC(=O)CCNC(=O)[C@H](O)C(C)(C)COP(=O)(O)OP(=O)(O)OC[C@H]1O[C@@H](n2cnc3c(N)ncnc32)[C@H](O)[C@@H]1OP(=O)(O)O; assay: DTNB enzymatic activity (kinetics) of purified F65L/L117V mutant-type Mpr1; assay type: biochemical, Saccharomyces cerevisiae; conditions: other: F65L/L117V, 30° C., DTNB method, […]-0.15 mM acetyl-CoA
[8] = substrate: O=C(O)[C@@H]1CCN1; assay: as above; assay type: biochemical, Saccharomyces cerevisiae; conditions: other: F65L/L117V, 30° C., DTNB method, 0.5 mM-5 mM AZC
[9] = substrate: O=C(O)[C@@H]1CCN1; assay: DTNB enzymatic activity (kinetics) of purified wild-type Mpr1; assay type: biochemical, Saccharomyces cerevisiae; conditions: other: wild-type, 30° C., DTNB method, 0.5 mM-5 mM AZC
[10] = substrate: CC(=O)SCCNC(=O)CCNC(=O)[C@H](O)C(C)(C)COP(=O)(O)OP(=O)(O)OC[C@H]1O[C@@H](n2cnc3c(N)ncnc32)[C@H](O)[C@@H]1OP(=O)(O)O; assay: DTNB enzymatic activity (kinetics) of purified F65L mutant-type Mpr1; assay type: biochemical, Saccharomyces cerevisiae; conditions: other: F65L, 30° C., DTNB method, […]-0.15 mM acetyl-CoA
[11] = substrate: O=C(O)[C@@H]1CCN1; assay: as above; assay type: biochemical, Saccharomyces cerevisiae; conditions: other: F65L, 30° C., DTNB method, 0.5 mM-5 mM AZC
[12] = substrate: CC(=O)SCCNC(=O)CCNC(=O)[C@H](O)C(C)(C)COP(=O)(O)OP(=O)(O)OC[C@H]1O[C@@H](n2cnc3c(N)ncnc32)[C@H](O)[C@@H]1OP(=O)(O)O; assay: DTNB enzymatic activity (kinetics) of purified K63R mutant-type Mpr1; assay type: biochemical, Saccharomyces cerevisiae; conditions: other: K63R, 30° C., DTNB method, […]-0.15 mM acetyl-CoA
[13] = substrate: O=C(O)[C@@H]1CCN1; assay: as above; assay type: biochemical, Saccharomyces cerevisiae; conditions: other: K63R, 30° C., DTNB method, 0.5 mM-5 mM AZC

Question: Which results are given for CC(=O)SCCNC(=O)CCNC(=O)[C@H](O)C(C)(C)COP(=O)(O)OP(=O)(O)OC[C@H]1O[C@@H](n2cnc3c(N)ncnc32)[C@H](O)[C@@H]1OP(=O)(O)O [Acetyl-CoA, acetyl-CoA]?
Answer: Km value, change in words [1]: decreased; Km value for acetyl-CoA, change in words [2]: decreased; Vmax (Acetyl-CoA) [3]: 64.5 ± 1.29 U/mg; kcat (Acetyl-CoA) [3]: 31.2 ± 0.63 s⁻¹

Question: Which results are given for O=C(O)[C@@H]1CCN1 [AZC, azetidine-2-calboxylate]?
Answer: Km value for AZC, change in words [4]: decreased; Km value, change in words [1]: decreased

B1: Saccharomyces cerevisiae N-acetyltransferase Mpr1 variant L117V (leucine 117 to valine), SEQ ID NO:9 (Saccharomyces cerevisiae; L117V) (protein)
chain: T1 sequence (E9P8D2 1-229 K63R) with R63K, L117V
Question: Which Km [5] does the source give for B1 here?
Answer: The Km was 7.63 ± 2.03 ↓ μM.

Question: What about the Vmax [5] of the same molecule?
Answer: Its Vmax is 79.4 ± 1.54 U/mg.

Question: And the kcat [5]?
Answer: Its kcat is 38.4 ± 0.74 s⁻¹.

Question: And the kcat/Km [5]?
Answer: Its kcat/Km is 5e+06 ± 1.17e+06 M⁻¹ s⁻¹.

Question: What about the Km [6] of the same molecule?
Answer: Its Km is 1400 ± 130 µM.

Question: And the Vmax [6]?
Answer: Its Vmax is 98.5 ± 3.34 U/mg.

Question: What about the kcat [6] of the same molecule?
Answer: The kcat was 47.6 ± 1.61 s⁻¹.

Question: And the kcat/Km [6]?
Answer: The kcat/Km was 32500 ± 2580 M⁻¹ s⁻¹.

B2: Saccharomyces cerevisiae N-acetyltransferase Mpr1 variant F65L/L117V, SEQ ID NO:10 (Saccharomyces cerevisiae; F65L/L117V) (protein)
chain: T1 sequence (E9P8D2 1-229 K63R) with R63K, F65L, L117V
Question: For B2, which Km [7] is on record?
Answer: The Km was 13.3 ± 1.67 µM.

Question: And the Vmax [7]?
Answer: The Vmax was 64.9 ± 0.36 U/mg.

Question: What about the kcat [7] of the same molecule?
Answer: Its kcat is 31.4 ± 0.17 s⁻¹.

Question: What about the kcat/Km [7] of the same molecule?
Answer: The kcat/Km was 2.3e+06 M⁻¹ s⁻¹.

Question: What about the Km [8] of the same molecule?
Answer: The Km was 1800 ± 190 µM.

Question: And the Vmax [8]?
Answer: The Vmax was 79.4 ± 1.05 U/mg.

Question: What about the kcat [8] of the same molecule?
Answer: Its kcat is 38.4 ± 2.18 s⁻¹.

Question: And the kcat/Km [8]?
Answer: Its kcat/Km is 21300 M⁻¹ s⁻¹.

B3: Saccharomyces cerevisiae N-acetyltransferase Mpr1, wild-type, SEQ ID NO:1 (Saccharomyces cerevisiae) (protein)
chain: T1 sequence (E9P8D2 1-229 K63R) with R63K
Question: Which results are given for B3?
Answer: Km [9]: 1600 ± 90 µM; Vmax [9]: 74.76 ± 1.27 U/mg; kcat [9]: 36.1 ± 1.53 s⁻¹; kcat/Km [9]: 22400 M⁻¹ s⁻¹

B4: Saccharomyces cerevisiae N-acetyltransferase Mpr1 variant F65L (phenylalanine 65 to leucine), SEQ ID NO:8 (Saccharomyces cerevisiae; F65L) (protein)
chain: T1 sequence (E9P8D2 1-229 K63R) with R63K, F65L
Question: What does the source list for B4?
Answer: Km [10]: 10.3 ± 1.46 µM; Vmax [10]: 63.7 ± 3.34 U/mg; kcat [10]: 30.8 ± 0.61 s⁻¹; kcat/Km [10]: 2.9e+06 M⁻¹ s⁻¹; Km [11]: 0.7 ± 0.15 ↓ mM; Vmax [11]: 65.0 ± 2.74 U/mg; kcat [11]: 31.4 ± 1.33 s⁻¹; kcat/Km [11]: 45500 ± 8630 M⁻¹ s⁻¹

B5: Saccharomyces cerevisiae N-acetyltransferase Mpr1 variant K63R (lysine 63 to arginine), SEQ ID NO:7 (Saccharomyces cerevisiae; K63R) (protein)
chain: T1 sequence (E9P8D2 1-229 K63R)
Question: How did the Km [12] turn out when B5 was run?
Answer: Its Km is 8.0 ± 2.84 ↓ μM.

Question: What about the Vmax [12] of the same molecule?
Answer: The Vmax was 62.4 ± 1.94 U/mg.

Question: What about the kcat [12] of the same molecule?
Answer: The kcat was 26.5 ± 0.94 s⁻¹.

Question: And the kcat/Km [12]?
Answer: Its kcat/Km is 3.3e+06 ± 1.09e+06 M⁻¹ s⁻¹.

Question: And the Km [13]?
Answer: Its Km is 1.2 ± 0.17 ↓ mM.

Question: What about the Vmax [13] of the same molecule?
Answer: Its Vmax is 72 ± 2.98 U/mg.

Question: And the kcat [13]?
Answer: Its kcat is 30.6 ± 1.44 s⁻¹.

Question: And the kcat/Km [13]?
Answer: Its kcat/Km is 24800 M⁻¹ s⁻¹.
